From the supplement of paper PMC9170038

Test system: MS2 coat protein
Test: apparent KD of MS2 coat protein; designed switch direction (-1 OFF switch, 1 ON switch): -1; higher = weaker reporter binding
Procedure, shortened: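 On Illumina chips, designed RNA switches with common flanks were made by stalled E. coli RNA polymerase. Titrations with SNAP-549-labelled MS2 coat protein, doubling from 0.7 or 1.5 nM to 3 µM, were done with no input, with 200 uM small-molecule ligand, or with an oligonucleotide input. Apparent KD is the median per design over clusters, from curve fits of normalised cluster fluorescence.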

[1] = Eterna round: R95, input ligand: microRNA oligo, concentration not stated
[2] = Eterna round: R95, input ligand: FMN 200 uM
[3] = Eterna round: R95, input ligand: none
[4] = input ligand: microRNA oligo, concentration not stated

Row | Sequence | apparent KD of MS2 coat protein [1] [nM] | apparent KD of MS2 coat protein [2] [nM] | apparent KD of MS2 coat protein [3] [nM] | apparent KD of MS2 coat protein (input ligand: FMN 200 uM) [nM] | apparent KD of MS2 coat protein (input ligand: none) [nM] | apparent KD of MS2 coat protein [4] [nM]
1 | UGGUAACAUGAGGAUCACCCAUGUCAGGAUAUCAGGAAGAGGAGAGGAGAGGAGAAGAUGAGAAGGGACUAUAU [Excluse me! 12 - Jieux - Exclusion 1] (puzzle: Exclusion 1) | 19.8 | – | – | – | – | –
2 | UGUACUAUGCGAGCUGACUUGCGUAGUGCAGCAGGUGGAACAUGAGGAUCACCCAUGUCCUCAUUUGCUCGUCUUAU [SL-sv3-2.03 JL mod] (puzzle: Sensor v3, turn-off variant 2) | 143 | 39 | 41.2 | – | – | –
3 | CCAUGGAGUGUGAGGAUAUGCUGGUCCUUGGAUCAGCAGAAGGCACAUGAGGAUCACCCAUGUGAAUACCGUGG [Mat - Exclusion 4 - JL Mod - D83] (puzzle: Brourd's mod of Exclusion 4) | 31.4 | – | – | – | – | –
4 | AACAUGUGAGGAUAUUAUCACAAAGGCGUAGAAAUACGCGAUAAGAAGGCACAUGAGGAUCACCCAUGUUCCGA [EX4 A.24] (Eterna round: R97, puzzle: Exclusion 4) | – | – | – | 66.8 | 17.5 | –
5 | AGUGCGUCAGGAUAUUCUAUUAAUUACAUGAGGAUCACCCAUGUGAAUGGACAAGGGUGUGAAGAAGGGACGUGCG [Omei Ex5 A17g] (Eterna round: R97, puzzle: Exclusion 5) | – | – | – | 360 | 872 | –
6 | AGUACUAUGCGAGCUGACUUGCGUAGUGCAGCAGGUGUAACAUGAGGAUCACCCAUGUCCUCAUUUGCUCGUCUUAA [Mat - Sensor v3 - Turn-off var 2 - D9] (puzzle: Sensor v3, turn-off variant 2) | 288 | 240 | 235 | – | – | –
7 | GGUACUAACACGAAAGUGUUAGUACAAUAAGCUAGUGGAACAUGAGGAUCACCCAUGUCCUCAUUAGCUCGUCUUAU [Mat - Sensor v3 - Turn-off var 2 - D36] (puzzle: Sensor v3, turn-off variant 2) | 43.8 | 14.5 | 15 | – | – | –
8 | AUUGUUUGAUACCUUUAAUACAUGAGGAUCACCCAUGUUAUCGAGGAUAUGUAGAAGAGAUGAGAACAGAAGGCGAAGUAAGAG [JR_ExcNG3_Sub096] (Eterna round: R96, puzzle: Exclusion NG 3) | – | – | – | 21.3 | 16.5 | 11.1
9 | CGUAAAAGGAAGGAUAUGCUAGACGAAAGUCUAGCAGAAGGUCCUACAUGAGGAUCACCCAUGUGUCCUAUACG [Mat - Exclusion 6 - Eli Mod - D12] (Eterna round: R97, puzzle: Exclusion 6) | – | – | – | 80.5 | 49.8 | –
10 | GAGAAAUUAUAGGAUAUCGUAUGGAUAAUUUAACGAGAAGGAUGAACAUGAGGAUCACCCAUGUGGUAUCAUGG [JL-ex6-3.13] (puzzle: Exclusion 6) | 327 | 262 | 331 | – | – | –
11 | AUAAUGUCAGGAUAUCAGUCGUACAGCCUCGGCUGUACGACUGAGAAGGGACAUGAGGAUCACCCAUGUGGUCA [E4/6-A2] (Eterna round: R97, puzzle: Exclusion 4) | – | – | – | 42.4 | 155 | –
12 | CAGUACUGAGGAUAUACAUGAGGAUCACCCAUGUUCCAAGGCUAGGAAACUAGCAAAAGUAGAAGGCAGUACUG [828 mod 2 m3] (Eterna round: R97, puzzle: Exclusion 3) | – | – | – | 472 | 24.5 | –
13 | ACAAGCUUUUUGUUCGUCUUAUACACUCCUAAUAAGACAACAUGAGGAUCACCCAUGUAACAAAGACGAACUCAUGU [Sesor Array 8 - Jieux - Sensor v3, turn-off variant 2] (puzzle: Sensor v3, turn-off variant 2) | 257 | 22.4 | 19.9 | – | – | –
14 | CCGUCCUCAGUUAGGAUAUCUUCCGGAGAACGAAAGGAGAAGGAACAUGAGGAUCACCCAUGUGGCCCGAUGGA [Eternabot (Original) Solution 16] (Eterna round: R97, puzzle: Brourd's mod of Exclusion 4) | – | – | – | 85.3 | 29.3 | –
15 | UUGUAGUGAGGAUAUAUAUAGUGGUUUUAUUAAUUUUUAUUACUUGAGGAUCACCCAAGUAGAAGGCGCAAAGU [JR_Ex2_Sub071] (Eterna round: R97, puzzle: Exclusion 2) | – | – | – | 19.2 | 18.3 | –
16 | ACAUGAGGAUCACCCAUGUUUUUCGGGUACUCUUUUUACAGCAAGGAUAUGCAUUAUUUAUGUACGCAGAAGGUGCUUUACGUC [JR_ExcNG3_Sub065] (Eterna round: R96, puzzle: Exclusion NG 3) | – | – | – | – | – | 82.9
17 | GUUGGUAAGUCAGGAUAUCCCUGUAAUGGCAGCGGAGAAGGGACAUGAGGAUCACCCAUGUGAACCUCCGGCGGAUAAACCCGC [Ancelave] (Eterna round: R96, puzzle: Exclusion NG 1) | – | – | – | 111 | 23.6 | 29.5

Row | Sequence | apparent KD of MS2 coat protein [1] [nM] | apparent KD of MS2 coat protein [2] [nM] | apparent KD of MS2 coat protein [3] [nM] | apparent KD of MS2 coat protein (input ligand: FMN 200 uM) [nM] | apparent KD of MS2 coat protein (input ligand: none) [nM] | apparent KD of MS2 coat protein [4] [nM]
18 | GGUGUGAGGCAGGAUAUGCUAUAUGUUAGUAAUGCAGAAGGGUCUACAUGAGGAUCACCCAUGUGUGCGGUAGA [Ex6 #4] (Eterna round: R97, puzzle: Exclusion 6) | – | – | – | 345 | 139 | –
19 | CUUUUGUGAGGAUAUUAGUAGUAAAUAAAUAAAAUUACUACUUAGAAGGCACAUGAGGAUCACCCAUGUUCCUC [salish99_ex4_r3_043] (puzzle: Exclusion 4) | 28.3 | – | – | – | – | –
20 | AGUAUGUCAGGAUAUCUCGGGUAGUCGACAACGGCUACCGAAGAGAAGGGACAUGAGGAUCACCCAUGUACCAU [EX4 B.26] (Eterna round: R97, puzzle: Exclusion 4) | – | – | – | 28.3 | 24.9 | –
21 | GUCGUACAUGAGGAUCACCCAUGUGAGGAUAUAGGUAGCAACCAGAAAUGGUUGCUACCUAGAAGGCGCAUGAU [Malcxlusion 10 - Jieux - Exclusion 1] (Eterna round: R97, puzzle: Exclusion 1) | – | – | – | 529 | 104 | –
22 | GCAGCUAGUUCAGGAUAUCAGCACGAUUAGUGCUGAGAAGGGAACAUGAGGAUCACCCAUGUGAUCAAUGCUGCAAUUUUAAUU [ENG1/12-A1] (Eterna round: R96, puzzle: Exclusion NG 1) | – | – | – | 481 | 597 | 235
23 | GUGUAGCUAGGAUAUACAUGAGGAUCACCCAUGUGAAUAAGAUAGAAUAAGAUAAAGUGUAGAAGGAGUAGUGU [Excluse me!!! 15 - Jieux - Exclusion 3] (puzzle: Exclusion 3) | 18.2 | 18.2 | 18.7 | – | – | –
24 | CUUCGUAUAGAGGAUAUAGGUUACUUCGGUAUCCUAGAAGGCUGUACAUGAGGAUCACCCAUGUACUUCAGAUC [Exclusion 6 - B - 13:a] (puzzle: Exclusion 6) | 12.2 | – | – | – | – | –
25 | CAAACCAGAGGAUAUGCGCAUAGAUCAGACUUUGUUUCUGAACAUGAGGAUCACCCAUGUAGAAGGCUGUAAAA [Ex2 #83] (Eterna round: R97, puzzle: Exclusion 2) | – | – | – | 28.1 | 29.7 | –
26 | UAUAUAUAGUAAGGAUAUGUAUUUAUCUUAUAAACAGAAGGUACUGACAUGAGGAUCACCCAUGUUUUAGUGUGGGCAUGUAGA [JMF's solution 17] (Eterna round: R96, puzzle: Exclusion NG 1) | – | – | – | 59.9 | 41.8 | 39
27 | GGUCGUCAAGUCAGGAUAUCGUUUGGUCGGUGUGACGAGAAGGGACAUGAGGAUCACCCAUGUCGUCUCAUCAG [Ex4 #29] (Eterna round: R97, puzzle: Brourd's mod of Exclusion 4) | – | – | – | 31 | 30.8 | –
28 | CAAAAGGAAGGAUAUGAUAAGCAGGACAUGAGGAUCACCCAUGUGACUGCCUCGUGGACAUCAGAAGGUCCAGGAC [Erqureorle] (puzzle: Exclusion 5) | 17.2 | 43.2 | 13.8 | – | – | –
29 | UAAAUUAUUGUAAGGAUAUCAGUCCCGAAAGGGACUGAGAAGGUACAUGAGGAUCACCCAUGUGAAAUAAGAAU [Mod of Zala 15 - Jieux - Brourd's Mod of Exclusion 4] (Eterna round: R97, puzzle: Brourd's mod of Exclusion 4) | – | – | – | 53.1 | 22.1 | –
30 | GUCGUACAUGAGGAUCACCCAUGUGAGGAUAUGGGCGGCGCCGCAAAAGCGGCGCCGCCCAGAAGGCGCAUGAU [Malcxlusion 6 - Jieux - Exclusion 1] (Eterna round: R97, puzzle: Exclusion 1) | – | – | – | 234 | 79.6 | –
31 | UAUUAGUAAGGAUAUGAGCCGUAGGACGAAAGUCCUACGGCUCAGAAGGUACAUGAGGAUCACCCAUGUUCAUU [Mod of Fisker 5 - Jieux - Exclusion 4] (Eterna round: R97, puzzle: Exclusion 4) | – | – | – | 17.7 | 15.9 | –
32 | CAUACUCAAGUGAGGAUAUUGUCUCGGAUACGAAACAAGAAGGCACAUGAGGAUCACCCAUGUAGAGAGUAAAG [EX-4 Malc #30] (puzzle: Brourd's mod of Exclusion 4) | 25.1 | 136 | 25.6 | – | – | –
33 | GAGCAGCCGAUAGGAUAUUCCGAGCUAAAGAGCAGUAGGACAUGAGGAUCACCCAUGUGUGCAUGGAAGAAGGGUCACUUCCAG [Eternabot solution 23] (Eterna round: R96, puzzle: Exclusion NG 2) | – | – | – | 25.8 | 30.7 | 24.2
